Experimental data taken from patent US20240124607A1 (Merck Sharp & Dohme, published 2024).

T1: Human CEACAM5 (K398) (human, UniProt P06731 35-685, limits assumed)
T1 construct: also called K398 allele
T1 sequence: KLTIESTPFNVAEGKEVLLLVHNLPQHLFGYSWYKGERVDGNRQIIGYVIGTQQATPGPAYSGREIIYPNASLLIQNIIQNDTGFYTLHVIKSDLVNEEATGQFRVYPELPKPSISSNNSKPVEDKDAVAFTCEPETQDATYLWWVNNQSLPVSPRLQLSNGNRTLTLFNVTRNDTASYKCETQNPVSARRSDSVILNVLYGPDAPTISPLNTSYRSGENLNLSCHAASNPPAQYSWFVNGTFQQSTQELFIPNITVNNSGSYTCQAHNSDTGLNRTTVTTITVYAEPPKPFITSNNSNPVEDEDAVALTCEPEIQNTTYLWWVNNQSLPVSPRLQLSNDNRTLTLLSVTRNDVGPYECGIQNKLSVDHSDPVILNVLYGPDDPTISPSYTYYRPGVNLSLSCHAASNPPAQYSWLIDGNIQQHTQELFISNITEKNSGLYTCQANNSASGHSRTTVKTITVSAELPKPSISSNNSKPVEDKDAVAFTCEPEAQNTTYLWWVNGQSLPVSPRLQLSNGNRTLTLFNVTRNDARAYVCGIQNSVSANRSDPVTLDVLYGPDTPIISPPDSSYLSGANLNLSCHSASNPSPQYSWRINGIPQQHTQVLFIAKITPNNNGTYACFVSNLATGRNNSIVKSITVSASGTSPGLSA

T2: Human CEACAM5 V83A (human, UniProt P06731 35-685, limits assumed)
T2 sequence: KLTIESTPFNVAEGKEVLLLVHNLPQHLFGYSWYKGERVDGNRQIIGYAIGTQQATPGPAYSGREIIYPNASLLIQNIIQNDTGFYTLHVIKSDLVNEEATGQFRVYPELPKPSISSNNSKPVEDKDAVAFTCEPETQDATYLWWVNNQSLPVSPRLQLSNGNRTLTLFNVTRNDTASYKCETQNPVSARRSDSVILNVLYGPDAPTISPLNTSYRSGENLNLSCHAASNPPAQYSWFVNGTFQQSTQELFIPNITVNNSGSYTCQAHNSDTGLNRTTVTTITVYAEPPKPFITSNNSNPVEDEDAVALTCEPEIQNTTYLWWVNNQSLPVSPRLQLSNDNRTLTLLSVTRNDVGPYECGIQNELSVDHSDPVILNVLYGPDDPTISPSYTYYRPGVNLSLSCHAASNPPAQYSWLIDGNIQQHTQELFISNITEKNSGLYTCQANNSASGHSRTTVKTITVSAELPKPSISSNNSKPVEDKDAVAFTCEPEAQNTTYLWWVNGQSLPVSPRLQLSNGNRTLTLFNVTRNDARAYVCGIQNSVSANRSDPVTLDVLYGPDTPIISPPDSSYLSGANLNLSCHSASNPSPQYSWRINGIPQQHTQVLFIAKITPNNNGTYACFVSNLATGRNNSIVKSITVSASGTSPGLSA

T3: Human CEACAM5 I112V (human, UniProt P06731 35-685, limits assumed)
T3 sequence: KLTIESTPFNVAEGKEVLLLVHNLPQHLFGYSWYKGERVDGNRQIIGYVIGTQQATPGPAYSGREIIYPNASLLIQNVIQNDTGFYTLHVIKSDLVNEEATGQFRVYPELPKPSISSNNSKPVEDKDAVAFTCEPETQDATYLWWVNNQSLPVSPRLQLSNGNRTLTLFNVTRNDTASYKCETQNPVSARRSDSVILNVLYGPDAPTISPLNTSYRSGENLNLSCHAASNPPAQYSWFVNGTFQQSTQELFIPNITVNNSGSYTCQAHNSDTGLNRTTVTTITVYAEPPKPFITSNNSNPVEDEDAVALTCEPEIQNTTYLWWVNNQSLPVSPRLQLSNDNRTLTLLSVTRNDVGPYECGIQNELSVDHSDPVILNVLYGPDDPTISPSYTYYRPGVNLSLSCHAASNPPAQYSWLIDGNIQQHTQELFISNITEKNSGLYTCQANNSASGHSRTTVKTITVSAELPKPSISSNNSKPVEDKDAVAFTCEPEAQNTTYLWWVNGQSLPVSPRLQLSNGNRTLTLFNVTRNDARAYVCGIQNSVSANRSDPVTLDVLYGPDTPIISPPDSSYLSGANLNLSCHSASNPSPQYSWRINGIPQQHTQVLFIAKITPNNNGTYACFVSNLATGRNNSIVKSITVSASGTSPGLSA

T4: Human CEACAM5 I113T (human, UniProt P06731 35-685, limits assumed)
T4 sequence: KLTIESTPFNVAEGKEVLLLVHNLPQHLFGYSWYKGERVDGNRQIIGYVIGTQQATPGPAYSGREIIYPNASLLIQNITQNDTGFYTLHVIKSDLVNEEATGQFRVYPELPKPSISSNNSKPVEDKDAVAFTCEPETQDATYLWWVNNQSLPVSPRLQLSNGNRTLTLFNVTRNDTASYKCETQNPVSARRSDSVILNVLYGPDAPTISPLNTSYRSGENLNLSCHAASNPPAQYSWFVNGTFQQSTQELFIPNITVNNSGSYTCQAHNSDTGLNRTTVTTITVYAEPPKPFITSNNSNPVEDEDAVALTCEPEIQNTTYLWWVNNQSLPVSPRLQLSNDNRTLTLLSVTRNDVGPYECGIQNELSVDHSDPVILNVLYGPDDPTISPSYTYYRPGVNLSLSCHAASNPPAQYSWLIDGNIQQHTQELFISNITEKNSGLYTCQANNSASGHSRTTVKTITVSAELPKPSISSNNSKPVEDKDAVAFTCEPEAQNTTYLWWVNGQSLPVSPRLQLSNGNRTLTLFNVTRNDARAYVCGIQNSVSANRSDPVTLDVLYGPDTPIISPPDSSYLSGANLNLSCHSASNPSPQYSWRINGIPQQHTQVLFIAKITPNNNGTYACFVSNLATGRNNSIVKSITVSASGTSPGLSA


Experiments:
Assay in all cases: SPR, 37C, pH 7.4
Human CEACAM5 (K398) = target: T1, Human CEACAM5 (K398)
Human CEACAM5 V83A = target: T2, Human CEACAM5 V83A
Human CEACAM5 I112V = target: T3, Human CEACAM5 I112V
Human CEACAM5 I113T = target: T4, Human CEACAM5 I113T

Row | Kd (Human CEACAM5 (K398)) | kon (Human CEACAM5 (K398)) | Kd (Human CEACAM5 V83A) | kon (Human CEACAM5 V83A) | Kd (Human CEACAM5 I112V) | kon (Human CEACAM5 I112V) | Kd (Human CEACAM5 I113T) | kon (Human CEACAM5 I113T) | Binder
1 | 6.3 nM | 220000 M⁻¹ s⁻¹ | 66 nM | 140000 M⁻¹ s⁻¹ | 11 nM | 130000 M⁻¹ s⁻¹ | 8.4 nM | 160000 M⁻¹ s⁻¹ | AB0466 F3' CEACAM5 TriNKET (bispecific antibody, human IgG1, kappa) not shown heavy: EVQLVESGGGLVKPGGSLRLSCAASGFTFSSYSMNWVRQAPGKGLEWVSSISSSSSYIYYADSVKGRFTISRDNAKNSLYLQMNSLRAEDTAVYYCARGAPIGAAAGWFDPWGQGTLVTVSSASTKGPSVFPLAPSSKSTSGGTAALGCLVKDYFPEPVTVSWNSGALTSGVHTFPAVLQSSGLYSLSSVVTVPSSSLGTQTYICNVNHKPSNTKVDKKVEPKSCDKTHTCPPCPAPELLGGPSVFLFPPKPKDTLMISRTPEVTCVVVDVSHEDPEVKFNWYVDGVEVHNAKTKPREEQYNSTYRVVSVLTVLHQDWLNGKEYKCKVSNKALPAPIEKTISKAKGQPREPQVCTLPPSRDELTENQVSLTCLVKGFYPSDIAVEWESNGQPENNYKTTPPVLDSDGSFFLYSWLTVDKSRWQQGNVFSCSVMHEALHNHYTQKSLSLSPG light: DIQMTQSPSSVSASVGDRVTITCRASQGISSWLAWYQQKPGKAPKLLIYAASSLQSGVPSRFSGSGSGTDFTLTISSLQPEDFATYYCQQGVSFPRTFGGGTKVEIKRTVAAPSVFIFPPSDEQLKSGTASVVCLLNNFYPREAKVQWKVDNALQSGNSQESVTEQDSKDSTYSLSSTLTLSKADYEKHKVYACEVTHQGLSSPVTKSFNRGEC
2 | 1.4 nM | 270000 M⁻¹ s⁻¹ | 8.2 nM | 180000 M⁻¹ s⁻¹ | 2 nM | 190000 M⁻¹ s⁻¹ | 1.9 nM | 210000 M⁻¹ s⁻¹ | AB0411 F3' CEACAM5 TriNKET (bispecific antibody, human IgG1, kappa) DIQLTQSPATLSVSPGERATLSCRASQSVSSSYLAWYQQKPGQAPRLLIYGASSRATGIPDRFSGSGSGTDFTLTISRLEPEDFAVYYCQQYNNWPLTFGCGTKVEIKGGGGSGGGGSGGGGSGGGGSQVQLVQSGGGLVQPGGSLRLSCAASGFTFTSYAMSWVRQAPGKCLEWVSAISGTGDSTFYADSVKGRFTFSRDNSKNTLYLQMNSLRAEDTAVYYCAKDLGWLQYGLFDYWGQGTLVTVSSGSDKTHTCPPCPAPELLGGPSVFLFPPKPKDTLMISRTPEVTCVVVDVSHEDPEVKFNWYVDGVEVHNAKTKPREEQYNSTYRVVSVLTVLHQDWLNGKEYKCKVSNKALPAPIEKTISKAKGQPREPRVYTLPPCRDELTKNQVSLTCLVKGFYPSDIAVEWESNGQPENNYKTTPPVLVSDGSFTLYSKLTVDKSRWQQGNVFSCSVMHEALHNHYTQKSLSLSPG heavy: EVQLVESGGGLVKPGGSLRLSCAASGFTFSSYSMNWVRQAPGKGLEWVSSISSSSSYIYYADSVKGRFTISRDNAKNSLYLQMNSLRAEDTAVYYCARGAPIGAAAGWFDPWGQGTLVTVSSASTKGPSVFPLAPSSKSTSGGTAALGCLVKDYFPEPVTVSWNSGALTSGVHTFPAVLQSSGLYSLSSVVTVPSSSLGTQTYICNVNHKPSNTKVDKKVEPKSCDKTHTCPPCPAPELLGGPSVFLFPPKPKDTLMISRTPEVTCVVVDVSHEDPEVKFNWYVDGVEVHNAKTKPREEQYNSTYRVVSVLTVLHQDWLNGKEYKCKVSNKALPAPIEKTISKAKGQPREPQVCTLPPSRDELTENQVSLTCLVKGFYPSDIAVEWESNGQPENNYKTTPPVLDSDGSFFLYSWLTVDKSRWQQGNVFSCSVMHEALHNHYTQKSLSLSPG light: DIQMTQSPSSVSASVGDRVTITCRASQGISSWLAWYQQKPGKAPKLLIYAASSLQSGVPSRFSGSGSGTDFTLTISSLQPEDFATYYCQQGVSFPRTFGGGTKVEIKRTVAAPSVFIFPPSDEQLKSGTASVVCLLNNFYPREAKVQWKVDNALQSGNSQESVTEQDSKDSTYSLSSTLTLSKADYEKHKVYACEVTHQGLSSPVTKSFNRGEC
3 | 19 nM | 86000 M⁻¹ s⁻¹ | 34 nM | 44000 M⁻¹ s⁻¹ | 38 nM | 42000 M⁻¹ s⁻¹ | 29 nM | 47000 M⁻¹ s⁻¹ | AB0621 F3' CEACAM5 TriNKET (bispecific antibody, human IgG1, kappa) DIVMTQSPDSLAVSLGERATINCKSSHSLLYGNFQNNYLAWYQQKPGQPPKLLIYWASTRESGVPDRFSGSGSGTDFTLTISSLQAEDVAVYYCQQYYSYPYTFGCGTKLEIKGGGGSGGGGSGGGGSGGGGSQVQLVQSGAEVKKPGASVKVSCKASGYTFTAYTIHWVRQAPGQCLEWMGYINPSSGYTEYNQKFKDRTTLTADTSISTAYMELSRLRSDDTAVYYCTREGGLLWFDYWGQGTLVTVSSGSDKTHTCPPCPAPELLGGPSVFLFPPKPKDTLMISRTPEVTCVVVDVSHEDPEVKFNWYVDGVEVHNAKTKPREEQYNSTYRVVSVLTVLHQDWLNGKEYKCKVSNKALPAPIEKTISKAKGQPREPRVYTLPPCRDELTKNQVSLTCLVKGFYPSDIAVEWESNGQPENNYKTTPPVLVSDGSFTLYSKLTVDKSRWQQGNVFSCSVMHEALHNHYTQKSLSLSPG heavy: EVQLVESGGGLVKPGGSLRLSCAASGFTFSSYSMNWVRQAPGKGLEWVSSISSSSSYIYYADSVKGRFTISRDNAKNSLYLQMNSLRAEDTAVYYCARGAPIGAAAGWFDPWGQGTLVTVSSASTKGPSVFPLAPSSKSTSGGTAALGCLVKDYFPEPVTVSWNSGALTSGVHTFPAVLQSSGLYSLSSVVTVPSSSLGTQTYICNVNHKPSNTKVDKKVEPKSCDKTHTCPPCPAPELLGGPSVFLFPPKPKDTLMISRTPEVTCVVVDVSHEDPEVKFNWYVDGVEVHNAKTKPREEQYNSTYRVVSVLTVLHQDWLNGKEYKCKVSNKALPAPIEKTISKAKGQPREPQVCTLPPSRDELTENQVSLTCLVKGFYPSDIAVEWESNGQPENNYKTTPPVLDSDGSFFLYSWLTVDKSRWQQGNVFSCSVMHEALHNHYTQKSLSLSPG light: DIQMTQSPSSVSASVGDRVTITCRASQGISSWLAWYQQKPGKAPKLLIYAASSLQSGVPSRFSGSGSGTDFTLTISSLQPEDFATYYCQQGVSFPRTFGGGTKVEIKRTVAAPSVFIFPPSDEQLKSGTASVVCLLNNFYPREAKVQWKVDNALQSGNSQESVTEQDSKDSTYSLSSTLTLSKADYEKHKVYACEVTHQGLSSPVTKSFNRGEC
